The values that follow come from PMC8046733 (Immunity, 2021).

The chains are these.
B1: RM11-43 heavy-chain variant I52A (antibody, V domains shown)
VH: QVQLVQSGAEVKKPGASVKLSCKASGFTFRIYAISWVRQAPGQGLEWMGEIAPLGGITNYAQKFQGRVTITADTSTSTAYMELSSLRSEDTAVYYCARGETKMITVLAGTTGGGLDSWGQGTLVTVSS
VL: DIQMTQSPSSLSASVGDKVTITCHASQGISSWLAWYQQKPGKAPKPLIYAASSLQSGVPSRFSGGGSGADYTLTISSLQPEDFATYYCQQYDDLPRTFGQGTKVEIK
B2: RM11-43 heavy-chain variant I56A (antibody, V domains shown)
VH: QVQLVQSGAEVKKPGASVKLSCKASGFTFRIYAISWVRQAPGQGLEWMGEIIPLGGATNYAQKFQGRVTITADTSTSTAYMELSSLRSEDTAVYYCARGETKMITVLAGTTGGGLDSWGQGTLVTVSS
VL: DIQMTQSPSSLSASVGDKVTITCHASQGISSWLAWYQQKPGKAPKPLIYAASSLQSGVPSRFSGGGSGADYTLTISSLQPEDFATYYCQQYDDLPRTFGQGTKVEIK
B3: RM11-43 heavy-chain variant L53A (antibody, V domains shown)
VH: QVQLVQSGAEVKKPGASVKLSCKASGFTFRIYAISWVRQAPGQGLEWMGEIIPAGGITNYAQKFQGRVTITADTSTSTAYMELSSLRSEDTAVYYCARGETKMITVLAGTTGGGLDSWGQGTLVTVSS
VL: DIQMTQSPSSLSASVGDKVTITCHASQGISSWLAWYQQKPGKAPKPLIYAASSLQSGVPSRFSGGGSGADYTLTISSLQPEDFATYYCQQYDDLPRTFGQGTKVEIK
B4: RM2-01 heavy-chain variant I51A (antibody, V domains shown)
VH: QVQLVQSGAEVKKPGASVKLSCKASGFTFRIYAISWVRQAPGQGLEWMGEAVPLGGITNYAQNFQGRAAITADTSINTAYMELSSLRSDDTAVYYCARVRTALVGPREGIFDFWGQGVLVTVSS
VL: DIQMTQSPSSLSASVGDRVSITCRASQTISTYLAWYQQKPGKVPKLLIYTASTLETGVPSRFSGSGSGTEFTLTISSLQPEDFATYYCQQHDSHPYSFGQGTKVEIK
B5: RM2-01 heavy-chain variant P52aA (antibody, V domains shown)
VH: QVQLVQSGAEVKKPGASVKLSCKASGFTFRIYAISWVRQAPGQGLEWMGEIVALGGITNYAQNFQGRAAITADTSINTAYMELSSLRSDDTAVYYCARVRTALVGPREGIFDFWGQGVLVTVSS
VL: DIQMTQSPSSLSASVGDRVSITCRASQTISTYLAWYQQKPGKVPKLLIYTASTLETGVPSRFSGSGSGTEFTLTISSLQPEDFATYYCQQHDSHPYSFGQGTKVEIK
B6: RM2-01 heavy-chain variant I56A (antibody, V domains shown)
VH: QVQLVQSGAEVKKPGASVKLSCKASGFTFRIYAISWVRQAPGQGLEWMGEIVPLGGATNYAQNFQGRAAITADTSINTAYMELSSLRSDDTAVYYCARVRTALVGPREGIFDFWGQGVLVTVSS
VL: DIQMTQSPSSLSASVGDRVSITCRASQTISTYLAWYQQKPGKVPKLLIYTASTLETGVPSRFSGSGSGTEFTLTISSLQPEDFATYYCQQHDSHPYSFGQGTKVEIK

In the test the target is HCV-1 E1E2 (autologous strain) (Hepatitis C virus genotype 1a, strain …, UniProt P26664, strain). Briefly: ELISA. Background: An ELISA detects its analyte on a solid surface through an enzyme-linked reagent.
B1: the binding result is given as “binds”.
On to B2, for which the binding result is listed as “binds”.
Regarding B3, the binding result is on record as “binds”.
The result for B4 reads “binds”; that for B5, “binds”; that for B6, “binds”.
